This note sets out measurements from patent US20230087125A1 (Memorial Sloan Kettering, published 2023).

The target in the assay is T1, human CD127 (IL-7R), as used in the scFv binding experiments (human, UniProt P16871 21-239, limits assumed).
T1 construct: also called IL-7Ralpha; interleukin-7 receptor subunit alpha
T1 sequence: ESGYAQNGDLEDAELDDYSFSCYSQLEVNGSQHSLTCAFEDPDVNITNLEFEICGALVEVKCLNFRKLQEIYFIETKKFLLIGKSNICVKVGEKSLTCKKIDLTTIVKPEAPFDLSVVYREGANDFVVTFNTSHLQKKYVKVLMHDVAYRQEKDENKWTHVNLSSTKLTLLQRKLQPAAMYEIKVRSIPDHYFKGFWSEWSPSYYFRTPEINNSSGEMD
Description: scFv binding experiment, given as ED50; method and format not stated (FIG. 1A).

B1: scFv703-Fc (VL-VH) (Fc fusion)
scFv: DIVLTQSPSSLPVTPGEPASISCRSSQSLLTVKGITSLYWFLQKPGQSPKLLIYRMSNRDSGVPDRFSGSGSETDFTLKISRVEAEDVGTYYCAQFLEYPHTFGAGTKLELKGGGGSGGGGSGGGGSAVQLVESGGGLVQPGGSLKITCAASGFTFTNAAMYWVRQAPGKGLEWVARIRTKANNYATYYADSVKGRFTISRDDSKSTVYLQMDSVKTEDTATYYCIVVVLTTTRDYFDYWGQGVLVTVSS
notes: The Fc is not described; also called scFv703LH; VL-VH scFv of OSE703; not shown: The Fc part implied by the name scFv703-Fc, and any hinge or linker to it
The EC50 is the concentration that produces a half-maximal response. Molecule B1 displayed an EC50 of 0.539 µg/mL.

B2: scFv703-Fc (VH-VL) (Fc fusion)
scFv: AVQLVESGGGLVQPGGSLKITCAASGFTFTNAAMYWVRQAPGKGLEWVARIRTKANNYATYYADSVKGRFTISRDDSKSTVYLQMDSVKTEDTATYYCIVVVLTTTRDYFDYWGQGVLVTVSSGGGGSGGGGSGGGGSDIVLTQSPSSLPVTPGEPASISCRSSQSLLTVKGITSLYWFLQKPGQSPKLLIYRMSNRDSGVPDRFSGSGSETDFTLKISRVEAEDVGTYYCAQFLEYPHTFGAGTKLELK
notes: The Fc is not described; also called scFv703HL; VH-VL scFv of OSE703; not shown: The Fc part implied by the name scFv703-Fc, and any hinge or linker to it
Regarding B2, the 50% effective concentration (EC50) was 3.32 µg/mL.
